Patent publication US20230295310A1 (ABCELLERA BIOLOGICS, published 2023)
Residue numbers refer to the chain shown, from its start. One block for each binder: values may come before it.

How the values were obtained:
[1] = molecular target: T1, cynomolgus monkey CD3 expressed on cyno primary T cells (cynomolgus monkey, UniProt Q95LI5 22-198; Q95LI8 22-171; Q95LI7 23-181); test: flow cytometry, cyno primary T cells
T1 construct: whole, on cells; CD3 complex on purified cynomolgus monkey CD3 pan T cells; also called cyno CD3
T1 sequence (Q95LI5 22-198, chain 1 of 3): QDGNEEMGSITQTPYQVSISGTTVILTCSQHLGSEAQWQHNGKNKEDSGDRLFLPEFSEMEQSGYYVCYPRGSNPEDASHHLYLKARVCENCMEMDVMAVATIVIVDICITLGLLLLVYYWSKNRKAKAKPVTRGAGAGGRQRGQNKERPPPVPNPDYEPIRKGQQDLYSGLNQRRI
T1 sequence (Q95LI8 22-171, chain 2 of 3): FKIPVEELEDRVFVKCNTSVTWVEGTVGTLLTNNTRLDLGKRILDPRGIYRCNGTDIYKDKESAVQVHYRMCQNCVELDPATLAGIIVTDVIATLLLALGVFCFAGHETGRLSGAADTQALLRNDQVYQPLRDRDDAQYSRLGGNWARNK
T1 sequence (Q95LI7 23-181, chain 3 of 3): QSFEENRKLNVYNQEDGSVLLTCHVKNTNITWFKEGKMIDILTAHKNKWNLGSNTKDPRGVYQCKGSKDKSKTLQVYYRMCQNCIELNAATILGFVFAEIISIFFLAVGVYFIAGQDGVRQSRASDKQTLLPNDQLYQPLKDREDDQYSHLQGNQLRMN
Protocol: Purified antibodies were confirmed to bind CD3 expressed on cells using the CytoFLEX S or LX flow cytometers (Beckman Coulter). Antibodies were diluted to 25 nM in FACS buffer (PBS+2% FBS) and were incubated with CD3-expressing cells for 30 minutes at 4° C. […] The median fluorescence intensity of the binding signal for each antibody was normalized to the isotype control to obtain a fold over isotype value. An antibody with a fold over isotype (FOI) of ≥10 was considered to be positive for binding.

human CD3e/d = molecular target: T2, human CD3e/d (human, UniProt P07766 23-126; P04234 22-105); test: SPR (Carterra LSA), mAb on chip
T2 construct: Bought soluble protein; also called hCD3e/d; human CD3/ed (Sino CT038-H2508H)
T2 sequence (P07766 23-126, chain 1 of 2): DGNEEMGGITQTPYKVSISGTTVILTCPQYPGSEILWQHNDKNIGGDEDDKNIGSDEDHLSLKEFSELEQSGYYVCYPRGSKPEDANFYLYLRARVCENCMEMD
T2 sequence (P04234 22-105, chain 2 of 2): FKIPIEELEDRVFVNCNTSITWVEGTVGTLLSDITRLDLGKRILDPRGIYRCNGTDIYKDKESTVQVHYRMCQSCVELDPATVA
Method in brief: (§1)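 Purified mAbs amine-coupled (EDC/S-NHS) at 10 μg/mL in 10 mM NaOAc pH 4.25 onto an HC-30M chip, with benchmark and negative-control mAbs; analyte flowed over the array. Double-referenced sensorgrams fitted globally to a 1:1 Langmuir model for ka, kd and KD.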

human CD3e/g = molecular target: T3, human CD3e/g (human, UniProt P07766 23-126; P09693 23-116); test: SPR (Carterra LSA), mAb on chip
T3 construct: Bought soluble protein; also called hCD3e/g; human CD3e/g (Acro CDD-C52W4)
T3 sequence (P07766 23-126, chain 1 of 2): as the sequence (P07766 23-126, chain 1 of 2) above
T3 sequence (P09693 23-116, chain 2 of 2): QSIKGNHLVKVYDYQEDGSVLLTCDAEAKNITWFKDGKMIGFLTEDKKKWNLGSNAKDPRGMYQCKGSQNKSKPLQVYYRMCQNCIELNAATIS
Method in brief: as §1

B1: mAb 288 (antibody, V domains shown)
VH: EVQLLESGGNLGQPGGSLRLSCAVSGFTFSSYTMSWVRQAPGKGLEWVSAISGSGGRTYYADSVKGRFTISRDNSKNTLYLQMKSLRAEDTAVYYCAKKFSYYYYYMDVWGKGTTVTVSS
VL: SYELTQPLSVSVALGQTARITCGGNNIGSKDVHWYQQKPGQAPVLVIYRDSNRPSGIPERFSGSNSGNTATLTISSAQAGDEADYYCQVWDSNTAVFGGGTQLTAL
notes: VH/VL only
binding result [1]: no binding (tested: FOI <10 (FOI >=10 = positive); 25 nM)

B2: mAb 265 (antibody, V domains shown)
VH: EVQLLESGGGLVQPGGSLRLSCAASGFTFRSSSMTWVRQAPGKGLEWVSGIRGSGGRTYDAESVKGRFTISRDNSKNTLYLQMNSLRAEDTAEYFCAKLYDYYNDYMDVWGKGTTVTVSS
VL: B1 VL with D31N, S76R, N93S
notes: VH/VL only
binding result [1]: no binding (tested: FOI <10 (FOI >=10 = positive); 25 nM)

Kd (human CD3e/d): 65 nM | Kd (human CD3e/g): 15.4 nM
B3: mAb 127 (antibody, V domains shown)
VH: EVQLVESGGGLVKTGGSHRLSCVASGFSFKKAWMNWVRQAPGKGLEWVGRIKRNSDGGTTDYAAPVKGRFILSRDDSKNTLYLQMNSLKTEDTAVYYCTTLDSSSWYVGYYYMDVWGKGTTVTVSS
VL: DIQMTQSPSSVSASVGDRVTITCRASQDINNWLAWYQQKPGKAPKILIYTASNLQSGVPSRFSGSGSGTDFTLTISTLQPEDFATYFCQQAHGLPITFGQGTRLEIK
notes: VH and VL only

Kd (human CD3e/d): 26.4 nM | Kd (human CD3e/g): 6.62 nM
B4: mAb 129 (antibody, V domains shown)
VH: B3 VH with G10D, H18L, S55T, T59A, G68D, I71T
VL: DIHMTQSPSSVSASLGDRVTFTCRASQDINNWLAWYQQKPGKAPRLLIYTASSLQSGVPSRFSGSGSGTDFTLTISSLQPDDFATYYCQQAHSLPITFGQGTRLGIE
notes: VH and VL only

B5: mAb 233 (antibody, V domains shown)
VH: QGKLVESGGGVVQPGRSLRLSCVASGFTFSGYGMHWVRQVPNKGLEWVAIIYYDGKNKYYADSVKGRFTISRDNSKNMLYLQMNSLRAEDTAVYYCVRGPGYNWFDPWGQGTLVTVSS
VL: EIVLTQSPDFQSVTPKEKVTITCRASQNIGSSLHWYQQKPDQSPKLLIKLTSQSFSGVPSRFSGSGSGTDFTLTINSLEAEDAATYYCHQSSSLPYTFGQGTKLEIK
notes: VH/VL only
binding result [1]: no binding (tested: FOI <10 (FOI >=10 = positive); 25 nM)

B6: mAb 236 (antibody, V domains shown)
VH: B5 VH with G2V, V40A, N42G, V64A, I70V, M78T, M83L, P107S
VL: B5 VL with N28S, S32N, L50Y
notes: VH/VL only
binding result [1]: no binding (tested: FOI <10 (FOI >=10 = positive); 25 nM)

B7: mAb 242 (antibody, V domains shown)
VH: B5 VH with A88V
VL: B5 VL
notes: VH/VL only
binding result [1]: no binding (tested: FOI <10 (FOI >=10 = positive); 25 nM)

B8: mAb 235 (antibody, V domains shown)
VH: B5 VH with V40A, I70V, M78T, M83L, S85N
VL: B5 VL with L47F, L50H, T51A
notes: VH/VL only
binding result [1]: no binding (tested: FOI <10 (FOI >=10 = positive); 25 nM)

B9: mAb 243 (antibody, V domains shown)
VH: B5 VH with V40A, A88V
VL: B5 VL with L50H, D70A
notes: VH/VL only
binding result [1]: no binding (tested: FOI <10 (FOI >=10 = positive); 25 nM)

B10: mAb 245 (antibody, V domains shown)
VH: B5 VH with G2V, V40A, N42G, A61V, M78T, M83L, P107L, S117A
VL: B5 VL with N28S, L50Y, T51A
notes: VH/VL only
binding result [1]: no binding (tested: FOI <10 (FOI >=10 = positive); 25 nM)

B11: mAb 190 (antibody, V domains shown)
VH: QVQLVESGGGVVQPGRSLRLSCAASGFTFSGYGMHWVRQAPGKGLEWVAIIYYNGKKEYYADSVKGRFTISRDNSKNTLYLQMNSLRAEDTAVYYCTRGEGYNWFDPWGQGTLVTVSS
VL: EIVMTQSPATLSVSPGERATLSCRASQSVSSNLAWYQQKPGQAPRLLIYGASTRATGIPARFSGSGSGTEFTLTISSLQSEDFAVYYCKQYNNWPLTFGGGTKVEIK
notes: VH/VL only
binding result [1]: no binding (tested: FOI <10 (FOI >=10 = positive); 25 nM)

B12: mAb 246 (antibody, V domains shown)
VH: B11 VH with V2E, S30R, G31S, Y52W, N54D, K57N, E58K, T97A, E100L
VL: B5 VL with N28S, L50Y, T51G
notes: VH/VL only
binding result [1]: no binding (tested: FOI <10 (FOI >=10 = positive); 25 nM)

B13: mAb 244 (antibody, V domains shown)
VH: QEQLVESGGGVVQPGRSLRLSCAASGFTFRSYGMHWVRQAPGKGLEWVAIIWYDGKNKYYADSVKGRFTISRDNSKNTLYLQMNSLRVEDTAVYYCARGLGYNWFDPWGQGTLVTVTS
VL: B5 VL with N28S, L50Y, T51A, S54T, A80V, Y96N
notes: VH/VL only
binding result [1]: no binding (tested: FOI <10 (FOI >=10 = positive); 25 nM)

B14: mAb 247 (antibody, V domains shown)
VH: B13 VH with T28I, R30S, D54N, N57K, K58R, Y59D, V88A, T117S
VL: B5 VL with E17D, N28S, L50Y, T51A, S93T
notes: VH/VL only
binding result [1]: no binding (tested: FOI <10 (FOI >=10 = positive); 25 nM)

B15: mAb 239 (antibody, V domains shown)
VH: B5 VH with G2E, Y32F, V40A, N42G, M78T
VL: B5 VL with N28S, L50Y, T51A
notes: VH/VL only
binding result [1]: no binding (tested: FOI <10 (FOI >=10 = positive); 25 nM)

B16: mAb 232 (antibody, V domains shown)
VH: B13 VH with R30S, D54N, K56R, N57K, Y59D, V88A, T117S
VL: B5 VL with K16M, T22A, N28S, L50Y, T51A
notes: VH/VL only
binding result [1]: no binding (tested: FOI <10 (FOI >=10 = positive); 25 nM)

B17: mAb 207 (antibody, V domains shown)
VH: B11 VH with K76R, Y80F, V93I
VL: B11 VL with Q79L
notes: VH/VL only
binding result [1]: no binding (tested: FOI <10 (FOI >=10 = positive); 25 nM)

B18: mAb 234 (antibody, V domains shown)
VH: B13 VH with T28I, R30S, D54N, N57K, K58R, Y59D, P107S, T117S
VL: B5 VL with N28S, L50Y, T51A
notes: VH/VL only
binding result [1]: no binding (tested: FOI <10 (FOI >=10 = positive); 25 nM)

B19: mAb 211 (antibody, V domains shown)
VH: B11 VH with K57R
VL: B11 VL with Q90H
notes: VH/VL only
binding result [1]: no binding (tested: FOI <10 (FOI >=10 = positive); 25 nM)

B20: mAb 231 (antibody, V domains shown)
VH: B11 VH with V2E, G31S, E58K, Y59D, T97V, E100L
VL: B5 VL with N28S, L50Y, T51A, S93N
notes: VH/VL only
binding result [1]: no binding (tested: FOI <10 (FOI >=10 = positive); 25 nM)

B21: mAb 200 (antibody, V domains shown)
VH: B11 VH with V5A, Y95F
VL: B11 VL with N92K
notes: VH/VL only
binding result [1]: no binding (tested: FOI <10 (FOI >=10 = positive); 25 nM)

B22: mAb 249 (antibody, V domains shown)
VH: B13 VH with V88A, T117S
VL: B5 VL with N28S, L50Y, T51A
notes: VH/VL only
binding result [1]: no binding (tested: FOI <10 (FOI >=10 = positive); 25 nM)

B23: mAb 241 (antibody, V domains shown)
VH: B13 VH with T28I, R30S, D54N, N57K, K58R, Y59D, V88A, T117S
VL: B5 VL with E1A, L50Y, T51A, S92G
notes: VH/VL only
binding result [1]: no binding (tested: FOI <10 (FOI >=10 = positive); 25 nM)

B24: mAb 227 (antibody, V domains shown)
VH: B13 VH with T28I, R30S, D54N, N57K, K58R, Y59D, V88A, T117S
VL: B5 VL with N28S, L50Y, T51A
notes: VH/VL only
binding result [1]: no binding (tested: FOI <10 (FOI >=10 = positive); 25 nM)

B25: mAb 208 (antibody, V domains shown)
VH: B13 VH with R30S, D54N, N57K, Y59D, N77S, V88A, T117S
VL: B5 VL with K16M, T22A, L50Y, T51A, L94F, Y96N
notes: VH/VL only
binding result [1]: no binding (tested: FOI <10 (FOI >=10 = positive); 25 nM)

B26: mAb 223 (antibody, V domains shown)
VH: QVQLVESGGGVVQPGRSLRLSCAASGFTFSGYGMHWVRQAPGKGLEWVAIIYYNGNNRKYADSVKGRFTISRDNSKNMVSLQMNSLRVEDTAIYYCTRGDGYNWFVTWGQGTLVTVSS
VL: B11 VL with R18G, Q37H, A60V, E81D, Y87F, K89Q
notes: VH/VL only
binding result [1]: no binding (tested: FOI <10 (FOI >=10 = positive); 25 nM)

B27: mAb 202 (antibody, V domains shown)
VH: B11 VH with Y95F
VL: B11 VL with N92K
notes: VH/VL only
binding result [1]: no binding (tested: FOI <10 (FOI >=10 = positive); 25 nM)
